The text below walks through data of patent publication US20040235029A1.

Some results are limits rather than exact numbers.

For this assay, the target named is exonuclease V (ExoV) of E. coli, a component of RecBCD holoenzyme (E. coli) (UniProt P08394). Description: cell-based or functional assay.
Sequence of UniProt P08394 (P08394 2-1180 limits assumed, chain 1 of 3): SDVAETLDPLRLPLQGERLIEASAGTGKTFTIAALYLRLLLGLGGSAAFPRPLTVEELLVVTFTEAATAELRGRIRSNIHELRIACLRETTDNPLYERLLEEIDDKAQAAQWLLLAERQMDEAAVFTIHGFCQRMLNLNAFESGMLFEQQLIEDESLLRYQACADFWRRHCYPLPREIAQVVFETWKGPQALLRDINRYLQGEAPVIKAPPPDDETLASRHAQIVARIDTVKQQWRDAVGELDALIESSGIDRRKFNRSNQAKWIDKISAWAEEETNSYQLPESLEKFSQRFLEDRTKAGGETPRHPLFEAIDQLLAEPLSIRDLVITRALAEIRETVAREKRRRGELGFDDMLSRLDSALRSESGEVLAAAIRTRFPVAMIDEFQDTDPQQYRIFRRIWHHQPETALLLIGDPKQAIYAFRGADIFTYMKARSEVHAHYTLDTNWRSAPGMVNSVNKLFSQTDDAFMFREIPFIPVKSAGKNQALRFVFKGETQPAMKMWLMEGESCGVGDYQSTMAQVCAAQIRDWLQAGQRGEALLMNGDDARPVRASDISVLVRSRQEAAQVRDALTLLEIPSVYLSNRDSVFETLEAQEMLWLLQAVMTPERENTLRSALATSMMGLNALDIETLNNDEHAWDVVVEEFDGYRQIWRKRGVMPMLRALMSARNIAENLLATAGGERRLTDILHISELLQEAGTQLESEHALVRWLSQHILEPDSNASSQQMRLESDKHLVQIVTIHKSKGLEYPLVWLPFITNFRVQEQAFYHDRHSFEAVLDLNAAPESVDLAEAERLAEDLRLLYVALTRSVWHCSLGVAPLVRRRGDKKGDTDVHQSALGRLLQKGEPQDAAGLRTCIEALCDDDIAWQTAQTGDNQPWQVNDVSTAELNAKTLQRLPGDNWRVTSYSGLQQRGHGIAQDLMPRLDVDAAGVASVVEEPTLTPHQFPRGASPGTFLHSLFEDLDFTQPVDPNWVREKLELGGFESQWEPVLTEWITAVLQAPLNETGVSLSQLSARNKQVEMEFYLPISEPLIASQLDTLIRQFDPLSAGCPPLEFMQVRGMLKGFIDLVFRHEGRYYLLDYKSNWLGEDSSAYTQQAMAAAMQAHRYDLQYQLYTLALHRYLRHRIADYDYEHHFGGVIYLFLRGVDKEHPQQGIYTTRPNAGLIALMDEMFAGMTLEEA
Sequence of UniProt P08394 (P07648 whole entry, chain 2 of 3, further chain): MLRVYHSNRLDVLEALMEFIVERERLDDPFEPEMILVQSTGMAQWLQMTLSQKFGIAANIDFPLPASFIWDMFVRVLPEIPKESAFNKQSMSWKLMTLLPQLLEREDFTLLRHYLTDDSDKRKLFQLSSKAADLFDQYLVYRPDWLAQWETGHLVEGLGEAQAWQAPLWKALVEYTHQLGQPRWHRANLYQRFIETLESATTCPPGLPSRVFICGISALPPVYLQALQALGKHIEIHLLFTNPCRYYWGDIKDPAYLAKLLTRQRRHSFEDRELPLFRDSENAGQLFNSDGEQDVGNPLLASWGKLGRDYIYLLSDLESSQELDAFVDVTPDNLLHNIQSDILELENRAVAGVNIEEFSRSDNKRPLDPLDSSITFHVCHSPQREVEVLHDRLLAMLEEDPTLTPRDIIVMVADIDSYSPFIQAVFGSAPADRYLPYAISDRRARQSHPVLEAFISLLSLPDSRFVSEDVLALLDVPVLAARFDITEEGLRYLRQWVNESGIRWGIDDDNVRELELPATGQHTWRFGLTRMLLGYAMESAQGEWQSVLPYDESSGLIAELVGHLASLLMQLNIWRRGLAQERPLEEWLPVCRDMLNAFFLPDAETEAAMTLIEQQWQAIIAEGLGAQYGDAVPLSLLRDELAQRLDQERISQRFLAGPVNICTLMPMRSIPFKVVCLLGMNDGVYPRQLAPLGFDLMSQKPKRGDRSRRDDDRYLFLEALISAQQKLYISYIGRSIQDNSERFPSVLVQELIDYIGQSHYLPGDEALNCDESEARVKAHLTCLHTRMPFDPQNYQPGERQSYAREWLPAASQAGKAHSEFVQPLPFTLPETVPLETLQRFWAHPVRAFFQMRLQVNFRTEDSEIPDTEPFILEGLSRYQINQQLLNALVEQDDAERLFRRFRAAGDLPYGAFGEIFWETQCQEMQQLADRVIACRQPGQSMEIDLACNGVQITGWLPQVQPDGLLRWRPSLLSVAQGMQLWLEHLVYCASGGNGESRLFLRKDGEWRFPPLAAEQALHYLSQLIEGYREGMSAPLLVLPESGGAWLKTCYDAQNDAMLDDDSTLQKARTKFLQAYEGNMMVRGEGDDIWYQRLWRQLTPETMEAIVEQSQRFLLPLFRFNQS
Sequence of UniProt P08394 (P04993 whole entry, chain 3 of 3, further chain): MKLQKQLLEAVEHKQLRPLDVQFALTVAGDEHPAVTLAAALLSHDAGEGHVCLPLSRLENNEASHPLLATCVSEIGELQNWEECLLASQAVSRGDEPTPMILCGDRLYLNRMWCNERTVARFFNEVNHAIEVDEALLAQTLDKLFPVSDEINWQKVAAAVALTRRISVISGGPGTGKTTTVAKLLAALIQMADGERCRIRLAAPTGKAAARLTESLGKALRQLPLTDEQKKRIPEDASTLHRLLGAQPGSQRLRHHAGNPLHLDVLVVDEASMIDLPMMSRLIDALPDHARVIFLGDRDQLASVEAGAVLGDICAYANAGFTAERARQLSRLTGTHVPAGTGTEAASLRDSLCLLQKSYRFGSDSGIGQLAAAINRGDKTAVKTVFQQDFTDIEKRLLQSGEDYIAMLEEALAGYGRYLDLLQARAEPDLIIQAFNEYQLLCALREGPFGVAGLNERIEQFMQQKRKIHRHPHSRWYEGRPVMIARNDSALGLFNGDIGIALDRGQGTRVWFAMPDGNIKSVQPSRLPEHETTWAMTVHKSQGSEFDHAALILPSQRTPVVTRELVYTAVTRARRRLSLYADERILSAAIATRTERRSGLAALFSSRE

“GamS protein of bacteriophage lambda with C-terminal 6His tag (from UniProt P03702 41-138)” had a GFP expression from linear template in batch IVT with co-expressed GamS plasmid template (Coomassie staining of gel) of more than 2 fold; a GFP expression from linear template in batch IVT with crude GamS (PAGE, Coomassie), against control reaction without GamS of 2 fold; a GFP protein synthesis from a linear template in batch mode IVT (Coomassie staining of gel), against control reactions lacking GamS of 3 fold.
